The text below walks through data of article PMC8944080, “Production of indole by Corynebacterium glutamicum microbial cell factories for flavor and fragrance applications” (Microbial Cell Factories, 2022).

Usually Km stands for the substrate concentration at which the rate is half of its maximum. One may read the kcat as the maximal rate divided by the concentration of active sites. For orientation: kcat/Km means the second-order rate constant that governs catalysis at low substrate concentration.

The subject of series [1] is N[C@@H](Cc1c[nH]c2ccccc12)C(=O)O. The series can be described thus: purified protein. As to conditions: 100 mM KPi pH 7.8, 30 °C, 0.05 mM pyridoxal phosphate, 1 mM DTT.
Series [2] concerns T1, N[C@@H](Cc1c[nH]c2ccccc12)C(=O)O.
T1 construct: full length, N-terminal 6xHis tag, codon-optimised gene, pACYCDuet-1, E. coli BL21(DE3), Ni-NTA; TNAs are homotetramers
As to the kind of experiment: purified protein. The format is biochemical, Proteus vulgaris. As to conditions: 100 mM KPi pH 7.8, 30 °C, 0.05 mM pyridoxal phosphate, 1 mM DTT.

On to EcTNA (Escherichia coli K-12), for which, in series [1], the Km amounted to 140 ± 10 µM, the kcat was 1.65 s⁻¹ and the kcat/Km turned out to be 11800 M⁻¹ s⁻¹.

Consider PvTNA (Proteus vulgaris), for which, in series [2], the Km amounted to 30 ± 3 µM, the kcat was determined as 0.78 ± 0.02 s⁻¹ and the kcat/Km came out at 26000 ± 5800 M⁻¹ s⁻¹.
